± gives the uncertainty stated by the source.
B1: SWI/SNF-related matrix-associated actin-dependent regulator of chromatin subfamily B member 1, residues 181 to 248; numbered along this chain, Q12824 (parent)
chain: SQPEVLVPIRLDMEIDGQKLRDAFTWNMNEKLMTPEMFSEILCDDLDLNPLTFVPAIASAIRQQIESY

Variants of: B1
Assay: abundance fitness (aPCA) (normalised: wild type 0, dead -1); higher = more abundant; growth selection in yeast, the domain comes from the species named
Conditions: Homo sapiens

Variant	abundance fitness
SQPEVLVPIRLDMEIDGQKLRDAFTWNMNEKLMTPEMFSEILCDDLDLNPLTFVPQIASAIRQQIESY	-0.095 ± 0.12
SQPEVLVPIRLDMEIDGQKLRDAATWNMNEKLMTPEMFSEILCDDLDLNPLTFVPAIASAIRQQIESY	-0.974 ± 0.099
SQPEVLVPIRLDMEIDGQKLRDSFTWNMNEKLMTPEMFSEILCDDLDLNPLTFVPAIASAIRQQIESY	0.089 ± 0.064
SQPEVLVPIRLDMEIDGQKLRDAFTWNMGEKLMTPEMFSEILCDDLDLNPLTFVPAIASAIRQQIESY	-0.244 ± 0.087
SQPEVLVPIRLDMEIDGQKLRDAFTWNMNEKLMTPEMFSEILCDDLDDNPLTFVPAIASAIRQQIESY	-0.785 ± 0.2
SQPEVLVPIRLDMEIDGQKLRDAFTWNMNEKLMTPEMFSEILCDDLDVNPLTFVPAIASAIRQQIESY	-0.554 ± 0.071
SQPEVLVPIRLDMEIDGQKLRDAFTWNMNEKLMTPEMFSEILCDDLDLNSLTFVPAIASAIRQQIESY	-0.389 ± 0.046
SQPEVLVPIRLDMEIDGQKLRDAFTWNMNEKLMTPEMFSEILCDDLDLNHLTFVPAIASAIRQQIESY	-0.039 ± 0.082
SQPEVLVPIRLDMEIDGQKLRDAFTWNMNEKLMEPEMFSEILCDDLDLNPLTFVPAIASAIRQQIESY	-0.388 ± 0.49
SQPEVLVPIRLDMEIDGQKLRDAFTWNMNEKLMIPEMFSEILCDDLDLNPLTFVPAIASAIRQQIESY	-0.848 ± 0.39
SQPEVLVPIRLDMEIDGQKLRDAFTWNMNEKLMQPEMFSEILCDDLDLNPLTFVPAIASAIRQQIESY	-0.881 ± 0.39
SQPEVLVPIRLDMEIDSQKLRDAFTWNMNEKLMTPEMFSEILCDDLDLNPLTFVPAIASAIRQQIESY	-0.769 ± 0.13
SQPEVLVPIRLDMEIDWQKLRDAFTWNMNEKLMTPEMFSEILCDDLDLNPLTFVPAIASAIRQQIESY	-0.897 ± 0.14
SQPEVVVPIRLDMEIDGQKLRDAFTWNMNEKLMTPEMFSEILCDDLDLNPLTFVPAIASAIRQQIESY	-0.221 ± 0.18
SQPEVLVPIRLDMEIDGQKLRDAFTWNMNEKLMTPEMFSEILCDDLDLNPETFVPAIASAIRQQIESY	0.185 ± 0.089
SQPEVLVPIRLDMEIDGQKLRDAFTWNMNEKLMTPEMFSEILCDDLDLNPSTFVPAIASAIRQQIESY	0.044 ± 0.065
SQPEVLVPIRLDMEIDGQKLRDAFTWNMNEKLMTPEMFSEILCDDLDLNPLTFVPAIASATRQQIESY	-0.594 ± 0.16
SQPEVLVPIRLDMEIDGQKLRDAFTWNMNEKLMTPEMFSEILCDDLDLNPLTFVPAIASACRQQIESY	-0.956 ± 0.27
SQPEVLVPPRLDMEIDGQKLRDAFTWNMNEKLMTPEMFSEILCDDLDLNPLTFVPAIASAIRQQIESY	-0.094 ± 0.43
SQPEVLVPGRLDMEIDGQKLRDAFTWNMNEKLMTPEMFSEILCDDLDLNPLTFVPAIASAIRQQIESY	-0.762 ± 0.18

Variant	abundance fitness
SQPEVLVPIRLDMEIDGQKLRDAFTWNMNEKLMTPEMFSEILCDDPDLNPLTFVPAIASAIRQQIESY	-1.08 ± 0.23
SQPEVLVPIRLDMEIDGQKLRDAFTWNMNEKLMTPEMFSEILCDDFDLNPLTFVPAIASAIRQQIESY	-0.091 ± 0.09
SQPEVLVPIRLDMEIDGQKLRDAFTWNMNEKLMTPEMFSEILCDDQDLNPLTFVPAIASAIRQQIESY	-0.162 ± 0.064
SQPEVLVPIRLDMEIDGQKLRDAFTWNMNEKYMTPEMFSEILCDDLDLNPLTFVPAIASAIRQQIESY	0.061 ± 0.058
SQPEVLVPIRLDMEIDGQKLRDAFTWNMNEKQMTPEMFSEILCDDLDLNPLTFVPAIASAIRQQIESY	0.099 ± 0.047
SQPEVLVPIRLDMEIDGTKLRDAFTWNMNEKLMTPEMFSEILCDDLDLNPLTFVPAIASAIRQQIESY	-0.347 ± 0.11
SQPEGLVPIRLDMEIDGQKLRDAFTWNMNEKLMTPEMFSEILCDDLDLNPLTFVPAIASAIRQQIESY	-0.302 ± 0.1
SQPEKLVPIRLDMEIDGQKLRDAFTWNMNEKLMTPEMFSEILCDDLDLNPLTFVPAIASAIRQQIESY	-0.051 ± 0.31
SQCEVLVPIRLDMEIDGQKLRDAFTWNMNEKLMTPEMFSEILCDDLDLNPLTFVPAIASAIRQQIESY	-0.297 ± 0.07
SQMEVLVPIRLDMEIDGQKLRDAFTWNMNEKLMTPEMFSEILCDDLDLNPLTFVPAIASAIRQQIESY	0.006 ± 0.085
SQYEVLVPIRLDMEIDGQKLRDAFTWNMNEKLMTPEMFSEILCDDLDLNPLTFVPAIASAIRQQIESY	0.002 ± 0.092
SQVEVLVPIRLDMEIDGQKLRDAFTWNMNEKLMTPEMFSEILCDDLDLNPLTFVPAIASAIRQQIESY	-0.146 ± 0.045
SQPEVLVPIRLDMEIDGQKLRDAFTWNMNEKLMTPEMFSFILCDDLDLNPLTFVPAIASAIRQQIESY	-0.463 ± 0.17
SQPEVLVPIRLDMEIDGQKLRDAFTWNMNEKLMTPEMFSEILCDDLDLNPLTFVPAIASAIRQPIESY	-0.878 ± 0.12
SQPEVLVPIRLDMEIDGQKLRDAFTWNMNEKLMTPEMFSEILCDDLDLNPLTFVPAIASAIRQFIESY	-0.584 ± 0.082
SQPEVLVPIRLDMEIDGQKLRDAFTWNMNEKLMTPEMFSEILCDDLDLNPLTFVPAIASAIRQHIESY	-0.741 ± 0.12
SQPEVLVPIRLDMEIDGQKLRDAFTWNPNEKLMTPEMFSEILCDDLDLNPLTFVPAIASAIRQQIESY	-0.5 ± 0.21
SQPEVLEPIRLDMEIDGQKLRDAFTWNMNEKLMTPEMFSEILCDDLDLNPLTFVPAIASAIRQQIESY	-0.868 ± 0.18
SQPEVLCPIRLDMEIDGQKLRDAFTWNMNEKLMTPEMFSEILCDDLDLNPLTFVPAIASAIRQQIESY	-0.293 ± 0.079
SQPEVLDPIRLDMEIDGQKLRDAFTWNMNEKLMTPEMFSEILCDDLDLNPLTFVPAIASAIRQQIESY	-0.749 ± 0.23

Reference: the Human Domainome abundance scans (Beltran et al. 2025)
